Experimental findings from patent US8871276B2, “Beta-casein assemblies for mucosal delivery of therapeutic bioactive agents” (Technion Research and Development Foundation Ltd., priority 2008, dated 2014) are described below.

Data set [1] is described as follows: Storage stability / appearance of suspensions and lyophilized powder. Particulars: stored at 4 °C, neutral pH. The class given is physicochemical. The protocol:
Bovine β-casein (>90%; Sigma-Aldrich) was dissolved in pH 7.0 hepes buffer containing 200 mM hepes (MP Biomedicals), 10 mM MgCl2 (Sigma-Aldrich), 20 mM EGTA (Sigma-Aldrich) and 10 mM NaCl (Loba Chemie), and was placed over-night at 4° C. under stirring. The protein solutions were prepared at concentrations ranging from 0.5 to 2 wt % (0.21 to 0.83 mM respectively), and were filtered through a porous membrane of 0.45 μm to avoid large protein aggregates. […] Stirring continued for 30 minutes in room temperature. […] The specimens remained stable i.e., no precipitation was observed, for at least 3 weeks at 4° C.
Protein and protein-drug solutions were lyophilized by freezing in liquid nitrogen followed by drying in a Christ Alpha 1-4 lyophilizer for 24 hours. The specimens were stored in 4° C. until re-suspension in hepes buffer, back to the original concentration (0.5 wt % or 2 wt %), or to a higher concentration of 5 wt %. Re-suspension was performed by weighing the powder, adding a measured amount of buffer and stirring for 30 minutes in room temperature.
The lifetime of the drug-loaded complexes increased to at least 3 weeks at the same temperature. Stability of the assemblies remains when they were transferred to room temperatures. […] This process provided increased stability of the loaded micelles in a dry powder form, for at least 6 months.

Data set [2] in a line: Isothermal titration calorimetry (ITC) of β-casein micellization. The class given is physicochemical. On the procedure:
[…] The reaction cell (V=1.43 mL) was filled with degassed solvent (lactic acid at pH 2.6, or phosphate buffer at pH 7.0). The injector-stirrer syringe (289 μL) was loaded with a β-casein micellar solution (20 mg/mL). The micellar solution was injected into the reaction cell in 28 steps of 10 μL aliquots each, and the heat flow was measured. During the titration, the stirring speed was 310 rpm. The duration of each injection was 20 s, and the equilibration time between consecutive injections was 3 min. Such an interval was sufficient to equilibrate the reaction cell after every injection. Each experiment was performed at least three times. Calorimetric data analysis was carried out using Origin 5.0 software (MicroCal).
β-casein micellar solution was titrated into lactic acid buffer (pH 2.6) placed in the ITC cell, and the heat flow was measured as a function of time (FIG. 6A). Three factors contribute to the exothermic enthalpy changes observed at the initial injections: micelle dilution, demicellization, and dilution of individual β-casein molecules. The enthalpy changes decrease in magnitude as more protein is added and the concentration in the ITC cell increases. Eventually, the concentration in the cell exceeds the CMC and only micelle dilution contributes to the heat flow. In FIG. 6B the heat of the reaction, obtained by integrating the peaks of the individual injections given in FIG. 6A, is plotted against the β-casein concentration in the cell. A slow increase in the reaction enthalpy was observed, resulting in micellixation relative cooperativity (MR) of 0.14 mM (FIG. 6b), which is more than twice than the value found at pH 7.0 and IS of 0.1. FIG. 6B also presents the heat of demicellization, ΔHdemic, which equals the enthalpy difference between the two asymptotes of the sigmoid fit of the experimental data (obtained by using the Origin software). It is shown that at 24° C. ΔHdemic is ≦17.9 kJ/mol, relatively small compared with the −40.53 kJ/mol found at pH 7.0 and IS of 0.1. […] This value is approximately twice the CMC found at pH 7 and ionic strength 0.1. The small ΔHdemic, the high CMC, and the large MR indicate that the driving forces for micellization under acidic conditions are reduced compared with those at physiological pH and high IS.
A general note: Isothermal titration calorimetry measures the heat released or taken up as one component is titrated into another.

B1: β-casein: bovine β-casein self-assembled into unloaded micelles in acidic or neutral buffer (protein, UniProt P02666 16-224, looked up)
Beta-casein: RELEELNVPGEIVESLSSSEESITRINKKIEKFQSEEQQQTEDELQDKIHPFAQTQSLVYPFPGPIPNSLPQNIPPLTQTPVVVPPFLQPEVMGVSKVKEAMAPKHKEMPFPKYPVEPFTESQSLTLTDVENLHLPLPLLQSWMHQPHQPLPPTVMFPPQSVLSLSQSKVLPVPQKAVPYPQRDMPIQAFLLYQEPVLGPVRGPFPIIV
modifications: self-assembled micelles
notes: bovine β-casein self-assembled into unloaded micelles in acidic or neutral buffer
As to B1, in data set [1], the “Lifetime of empty micelles on storage” value is recorded as “degraded within a few days”. Moreover, the “Micellization relative cooperativity (MR)” value in data set [2] (lactic acid pH 2.6, 24 °C) is listed as 0.14 mM. Further, the “Heat of demicellization ΔHdemic” value is not above 4.28 kcal/mol in data set [2] (pH 2.6, 24 °C) and -9.687 kcal/mol in data set [2] (pH 7.0, IS 0.1). The CMC is given as 1.89 mg/mL in data set [2] (pH 2.6, 24 °C, by ITC); 0.19 wt % in data set [2] (pH 2.6, 25 °C, by ITC); 0.079 mM in data set [2] (pH 2.6, by ITC).
